B1: PTPLAD1 (parent)
chain: YINFRHLYKQRRRRYGQKKKKIH

Variants of: B1
Assay: protein stability index of a GFP-peptide fusion (GPS, HEK-293T) (PSI 1-6); higher = more stable
Details: c terminus: native
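Also: lentivirally expressed fusions sorted by FACS into six bins by GFP to DsRed ratio, PSI derived from sequencing read proportions per bin multiplied by bin number.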

Variant | protein stability index
YINFRTLYKQRRRRYGQKKKKIH | 2.02
YINFRVLYKQRRRRYGQKKKKIH | 2.06
YINFRWLYKQRRRRYGQKKKKIH | 1.75
YINFRYLYKQRRRRYGQKKKKIH | 1.88
YINFRHAYKQRRRRYGQKKKKIH | 2.01
YINFRHDYKQRRRRYGQKKKKIH | 3.07
YINFRHEYKQRRRRYGQKKKKIH | 2.79
YINFRHFYKQRRRRYGQKKKKIH | 1.41
YINFRHGYKQRRRRYGQKKKKIH | 2.68
YINFRHHYKQRRRRYGQKKKKIH | 2.31
YINFRHIYKQRRRRYGQKKKKIH | 1.94
YINFRHMYKQRRRRYGQKKKKIH | 2.31
YINFRHNYKQRRRRYGQKKKKIH | 2.72
YINFRHPYKQRRRRYGQKKKKIH | 2.92
YINFRHQYKQRRRRYGQKKKKIH | 2.24
YINFRHRYKQRRRRYGQKKKKIH | 2.77
YINFRHSYKQRRRRYGQKKKKIH | 2.04
YINFRHTYKQRRRRYGQKKKKIH | 2.26
YINFRHVYKQRRRRYGQKKKKIH | 2.93
YINFRHYYKQRRRRYGQKKKKIH | 2.29
YINFRHLAKQRRRRYGQKKKKIH | 2.52
YINFRHLCKQRRRRYGQKKKKIH | 2.01
YINFRHLDKQRRRRYGQKKKKIH | 3.25
YINFRHLEKQRRRRYGQKKKKIH | 2.18
YINFRHLGKQRRRRYGQKKKKIH | 2.03

Variant | protein stability index
YINFRHLHKQRRRRYGQKKKKIH | 2.31
YINFRHLIKQRRRRYGQKKKKIH | 1.56
YINFRHLKKQRRRRYGQKKKKIH | 2.5
YINFRHLLKQRRRRYGQKKKKIH | 1.76
YINFRHLNKQRRRRYGQKKKKIH | 2.72
YINFRHLPKQRRRRYGQKKKKIH | 2.81
YINFRHLRKQRRRRYGQKKKKIH | 2.2
YINFRHLSKQRRRRYGQKKKKIH | 1.95
YINFRHLTKQRRRRYGQKKKKIH | 1.76
YINFRHLWKQRRRRYGQKKKKIH | 2.9
YINFRHLYAQRRRRYGQKKKKIH | 3.21
YINFRHLYCQRRRRYGQKKKKIH | 1.83
YINFRHLYDQRRRRYGQKKKKIH | 3.3
YINFRHLYEQRRRRYGQKKKKIH | 2.03
YINFRHLYGQRRRRYGQKKKKIH | 1.95
YINFRHLYHQRRRRYGQKKKKIH | 2.17
YINFRHLYIQRRRRYGQKKKKIH | 2.26
YINFRHLYLQRRRRYGQKKKKIH | 1.55
YINFRHLYNQRRRRYGQKKKKIH | 2.8
YINFRHLYPQRRRRYGQKKKKIH | 2.27
YINFRHLYQQRRRRYGQKKKKIH | 1.92
YINFRHLYRQRRRRYGQKKKKIH | 3.03
YINFRHLYSQRRRRYGQKKKKIH | 2.6
YINFRHLYTQRRRRYGQKKKKIH | 2.12
YINFRHLYVQRRRRYGQKKKKIH | 1.91

Variant | protein stability index
YINFRHLYWQRRRRYGQKKKKIH | 2.45
YINFRHLYYQRRRRYGQKKKKIH | 2.6
YINFRHLYKARRRRYGQKKKKIH | 2.59
YINFRHLYKCRRRRYGQKKKKIH | 2.22
YINFRHLYKDRRRRYGQKKKKIH | 1.88
YINFRHLYKERRRRYGQKKKKIH | 1.96
YINFRHLYKFRRRRYGQKKKKIH | 2.15
YINFRHLYKGRRRRYGQKKKKIH | 1.92
YINFRHLYKHRRRRYGQKKKKIH | 2.27
YINFRHLYKIRRRRYGQKKKKIH | 1.3
YINFRHLYKKRRRRYGQKKKKIH | 2
YINFRHLYKLRRRRYGQKKKKIH | 2.14
YINFRHLYKMRRRRYGQKKKKIH | 1.96
YINFRHLYKPRRRRYGQKKKKIH | 1.66
YINFRHLYKRRRRRYGQKKKKIH | 2.26
YINFRHLYKSRRRRYGQKKKKIH | 1.7
YINFRHLYKTRRRRYGQKKKKIH | 2.29
YINFRHLYKVRRRRYGQKKKKIH | 1.47
YINFRHLYKWRRRRYGQKKKKIH | 1.8
YINFRHLYKYRRRRYGQKKKKIH | 2.06
YINFRHLYKQARRRYGQKKKKIH | 1.72
YINFRHLYKQCRRRYGQKKKKIH | 1.58
YINFRHLYKQDRRRYGQKKKKIH | 1.39
YINFRHLYKQFRRRYGQKKKKIH | 1.73
YINFRHLYKQGRRRYGQKKKKIH | 2.54

Variant | protein stability index
YINFRHLYKQHRRRYGQKKKKIH | 2.15
YINFRHLYKQKRRRYGQKKKKIH | 1.65
YINFRHLYKQLRRRYGQKKKKIH | 1.61
YINFRHLYKQMRRRYGQKKKKIH | 1.32
YINFRHLYKQNRRRYGQKKKKIH | 2.91
YINFRHLYKQPRRRYGQKKKKIH | 2.84
YINFRHLYKQQRRRYGQKKKKIH | 2.37
YINFRHLYKQSRRRYGQKKKKIH | 2.3
YINFRHLYKQTRRRYGQKKKKIH | 2.02
YINFRHLYKQYRRRYGQKKKKIH | 2.61
YINFRHLYKQRARRYGQKKKKIH | 1.44
YINFRHLYKQRCRRYGQKKKKIH | 1.55
YINFRHLYKQRDRRYGQKKKKIH | 2.24
YINFRHLYKQRERRYGQKKKKIH | 1.58
YINFRHLYKQRFRRYGQKKKKIH | 1.62
YINFRHLYKQRGRRYGQKKKKIH | 2.92
YINFRHLYKQRHRRYGQKKKKIH | 1.93
YINFRHLYKQRIRRYGQKKKKIH | 2.44
YINFRHLYKQRKRRYGQKKKKIH | 1.91
YINFRHLYKQRLRRYGQKKKKIH | 1.25
YINFRHLYKQRMRRYGQKKKKIH | 2.44
YINFRHLYKQRNRRYGQKKKKIH | 2.05
YINFRHLYKQRPRRYGQKKKKIH | 1.96
YINFRHLYKQRQRRYGQKKKKIH | 2.26
YINFRHLYKQRSRRYGQKKKKIH | 2.18

Variant | protein stability index
YINFRHLYKQRTRRYGQKKKKIH | 3.06
YINFRHLYKQRVRRYGQKKKKIH | 3.11
YINFRHLYKQRWRRYGQKKKKIH | 2.15
YINFRHLYKQRYRRYGQKKKKIH | 2.01
YINFRHLYKQRRARYGQKKKKIH | 1.7
YINFRHLYKQRRDRYGQKKKKIH | 1.37
YINFRHLYKQRRERYGQKKKKIH | 2.09
YINFRHLYKQRRFRYGQKKKKIH | 2.49
YINFRHLYKQRRGRYGQKKKKIH | 1.41
YINFRHLYKQRRHRYGQKKKKIH | 2.4
YINFRHLYKQRRIRYGQKKKKIH | 1.9
YINFRHLYKQRRKRYGQKKKKIH | 1.45
YINFRHLYKQRRLRYGQKKKKIH | 2.3
YINFRHLYKQRRNRYGQKKKKIH | 1.25
YINFRHLYKQRRPRYGQKKKKIH | 3.64
YINFRHLYKQRRQRYGQKKKKIH | 1.91
YINFRHLYKQRRSRYGQKKKKIH | 1.41
YINFRHLYKQRRTRYGQKKKKIH | 1.75
YINFRHLYKQRRVRYGQKKKKIH | 2.13
YINFRHLYKQRRYRYGQKKKKIH | 2.28
YINFRHLYKQRRRAYGQKKKKIH | 2.57
YINFRHLYKQRRREYGQKKKKIH | 1.78
YINFRHLYKQRRRFYGQKKKKIH | 2.16
YINFRHLYKQRRRGYGQKKKKIH | 2.47
YINFRHLYKQRRRHYGQKKKKIH | 1.96

Variant | protein stability index
YINFRHLYKQRRRIYGQKKKKIH | 1.6
YINFRHLYKQRRRKYGQKKKKIH | 2.22
YINFRHLYKQRRRLYGQKKKKIH | 2.34
YINFRHLYKQRRRNYGQKKKKIH | 2.15
YINFRHLYKQRRRPYGQKKKKIH | 2.05
YINFRHLYKQRRRSYGQKKKKIH | 1.85
YINFRHLYKQRRRTYGQKKKKIH | 1.22
YINFRHLYKQRRRVYGQKKKKIH | 2.14
YINFRHLYKQRRRYYGQKKKKIH | 1.78
YINFRHLYKQRRRRAGQKKKKIH | 2.12
YINFRHLYKQRRRRCGQKKKKIH | 2.22
YINFRHLYKQRRRRDGQKKKKIH | 2.48
YINFRHLYKQRRRREGQKKKKIH | 4.57
YINFRHLYKQRRRRFGQKKKKIH | 1.53
YINFRHLYKQRRRRGGQKKKKIH | 2.14
YINFRHLYKQRRRRHGQKKKKIH | 1.72
YINFRHLYKQRRRRIGQKKKKIH | 2.11
YINFRHLYKQRRRRKGQKKKKIH | 2.33
YINFRHLYKQRRRRLGQKKKKIH | 2
YINFRHLYKQRRRRMGQKKKKIH | 1.37
YINFRHLYKQRRRRNGQKKKKIH | 1.11
YINFRHLYKQRRRRQGQKKKKIH | 1.88
YINFRHLYKQRRRRRGQKKKKIH | 2.85
YINFRHLYKQRRRRSGQKKKKIH | 1.74
YINFRHLYKQRRRRTGQKKKKIH | 1.69

Variant | protein stability index
YINFRHLYKQRRRRVGQKKKKIH | 2.14
YINFRHLYKQRRRRWGQKKKKIH | 2.59
YINFRHLYKQRRRRYAQKKKKIH | 2.54
YINFRHLYKQRRRRYCQKKKKIH | 2.27
YINFRHLYKQRRRRYDQKKKKIH | 2.6
YINFRHLYKQRRRRYEQKKKKIH | 1.85
YINFRHLYKQRRRRYFQKKKKIH | 1.6
YINFRHLYKQRRRRYHQKKKKIH | 1.35
YINFRHLYKQRRRRYIQKKKKIH | 2.21
YINFRHLYKQRRRRYKQKKKKIH | 2.57
YINFRHLYKQRRRRYLQKKKKIH | 2.23
YINFRHLYKQRRRRYMQKKKKIH | 2.27
YINFRHLYKQRRRRYNQKKKKIH | 1.4
YINFRHLYKQRRRRYPQKKKKIH | 1.66
YINFRHLYKQRRRRYQQKKKKIH | 1.56
YINFRHLYKQRRRRYRQKKKKIH | 1.74
YINFRHLYKQRRRRYSQKKKKIH | 2.71
YINFRHLYKQRRRRYTQKKKKIH | 2.88
YINFRHLYKQRRRRYVQKKKKIH | 2.44
YINFRHLYKQRRRRYWQKKKKIH | 2.76
YINFRHLYKQRRRRYYQKKKKIH | 1.25
YINFRHLYKQRRRRYGAKKKKIH | 2.66
YINFRHLYKQRRRRYGCKKKKIH | 1.48
YINFRHLYKQRRRRYGDKKKKIH | 2.23
YINFRHLYKQRRRRYGEKKKKIH | 2.55

Variant | protein stability index
YINFRHLYKQRRRRYGFKKKKIH | 2.3
YINFRHLYKQRRRRYGGKKKKIH | 2.25
YINFRHLYKQRRRRYGHKKKKIH | 1.72
YINFRHLYKQRRRRYGKKKKKIH | 1.76
YINFRHLYKQRRRRYGLKKKKIH | 2.07
YINFRHLYKQRRRRYGMKKKKIH | 1.73
YINFRHLYKQRRRRYGNKKKKIH | 4
YINFRHLYKQRRRRYGPKKKKIH | 1.46
YINFRHLYKQRRRRYGRKKKKIH | 2.59
YINFRHLYKQRRRRYGTKKKKIH | 2.54
YINFRHLYKQRRRRYGVKKKKIH | 1.89
YINFRHLYKQRRRRYGWKKKKIH | 1.63
YINFRHLYKQRRRRYGYKKKKIH | 1.7
YINFRHLYKQRRRRYGQAKKKIH | 2.15
YINFRHLYKQRRRRYGQCKKKIH | 2.62
YINFRHLYKQRRRRYGQDKKKIH | 2.44
YINFRHLYKQRRRRYGQEKKKIH | 2.17
YINFRHLYKQRRRRYGQFKKKIH | 2.46
YINFRHLYKQRRRRYGQGKKKIH | 1.91

Reference: the supplement of paper PMC10567573
